Consider seven sequences from the supplement of paper PMC5998384.

Data set [1] has as its system HeLa Kyoto. The data set is described as follows: thermal stability score vs G1/S (z-score of summed log2 fold changes over temperatures); higher = more thermally stable than in G1/S.
In data set [2] the test system is HeLa Kyoto. The data set is described as follows: solubility in G1/S (NP-40 vs SDS abundance) (log2 ratio); higher = more soluble. To be noted: cell cycle stage: G1/S.
Data set [3] has as its system HeLa Kyoto. Nature of the data set: solubility change mitosis vs G1/S (difference of NP-40 vs SDS log2 ratios) (log2 ratio difference); higher = more soluble in mitosis.
Data set [4] concerns HeLa Kyoto. Nature of the data set: melting temperature (median over replicates), in situ; higher = more thermally stable.
The mark [5] stands for this setting: cell cycle stage: early G1 (4.5 h after nocodazole release).
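Throughout, for melting temperature (median over replicates), in situ: HeLa Kyoto cells synchronized by double thymidine or nocodazole block, proteins quantified by TMT10plex mass spectrometry, three independent biological replicates.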
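Throughout, for solubility change mitosis vs G1/S (difference of NP-40 vs SDS log2 ratios): synchronized HeLa Kyoto cells (double thymidine block for G1/S, nocodazole release for mitosis), protein amounts in NP-40 versus SDS lysates quantified by mass spectrometry, three biological replicates.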
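Throughout, for solubility in G1/S (NP-40 vs SDS abundance): HeLa Kyoto cells arrested at G1/S by double thymidine block, proteins quantified by TMT10plex mass spectrometry in mild NP-40 versus SDS extracts, three biological replicates.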
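Throughout, for thermal stability score vs G1/S (z-score of summed log2 fold changes over temperatures): synchronized HeLa Kyoto cells, proteins quantified by TMT10plex mass spectrometry, three biological replicates, mitosis taken 0.5 h after nocodazole release, G1/S directly after double thymidine block.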

Turning to “MDLLQFLAFLFVLLLSGMGATGTLRTSLDPSLEIYKKMFEVKRREQLLALKNLAQLNDIHQQYKILDVMLKGLFKVLEDSRTVLTAADVLPDGPFPQDEKLKDAFSHVVENTAFFGDVVLRFPRIVHYYFDHNSNWNLLIRWGISFCNQTGVFNQGPHSPILSLMAQELGISEKDSNFQNPFKIDRTEFIPSTDPFQKALREEEKRRKKEEKRKEIRKGPRISRSQSEL [CCDC134]”, the thermal stability score amounted to 1.83 in data set [1] (setting [5]) and 1.3 in data set [1] (cell cycle stage: mitosis). Moreover, in data set [2], the “solubility in G1/S (log2)” value worked out at 0.505. Moreover, in data set [3], the “solubility change mitosis (log2)” value was determined as 0.012. Moreover, the melting temperature in data set [4] (cell cycle stage: G1/S) was 51.7 °C; in data set [4] (cell cycle stage: mitosis), 53.3 °C.
In the case of “MDLSELERDNTGRCRLSSPVPAVCRKEPCVLGVDEAGRGPVLGPMVYAICYCPLPRLADLEALKVADSKTLLESERERLFAKMEDTDFVGWALDVLSPNLISTSMLGRVKYNLNSLSHDTATGLIQYALDQGVNVTQVFVDTVGMPETYQARLQQSFPGIEVTVKAKADALYPVVSAASICAKVARDQAVKKWQFVEKLQDLDTDYGSGYPNDPKTKAWLKEHVEPVFGFPQFVRFSWRTAQTILEKEAEDVIWEDSASENQEGLRKITSYFLNEGSQARPRSSHRYFLERGLESATSL [RNASEH2A]”, the thermal stability score in data set [1] (setting [5]) came to 0.166; in data set [1] (cell cycle stage: mitosis), 0.422. For the same sequence, the “solubility in G1/S (log2)” value in data set [2] turned out to be 0.206. In data set [3], the “solubility change mitosis (log2)” value was -0.012. The melting temperature was 49.9 °C in data set [4] (cell cycle stage: G1/S) and 50.5 °C in data set [4] (cell cycle stage: mitosis).
For “MDMLDPGLDPAASATAAAAASHDKGPEAEEGVELQEGGDGPGAEEQTAVAITSVQQAAFGDHNIQYQFRTETNGGQVTYRVVQVTDGQLDGQGDTAGAVSVVSTAAFAGGQQAVTQVGVDGAAQRPGPAAASVPPGPAAPFPLAVIQNPFSNGGSPAAEAVSGEARFAYFPASSVGDTTAVSVQTTDQSLQAGGQFYVMMTPQDVLQTGTQRTIAPRTHPYSPKIDGTRTPRDERRRAQHNEVERRRRDKINNWIVQLSKIIPDCNADNSKTGASKGGILSKACDYIRELRQTNQRMQETFKEAERLQMDNELLRQQIEELKNENALLRAQLQQHNLEMVGEGTRQ [USF2]”, the results for the thermal stability score in data set [1] (setting [5]) and in data set [1] (cell cycle stage: mitosis) were -0.00434 and -0.248, respectively. In addition, in data set [2], the “solubility in G1/S (log2)” value was -0.0293. The “solubility change mitosis (log2)” value in data set [3] is 0.142. Further, the melting temperature in data set [4] (cell cycle stage: G1/S) is 54 °C; in data set [4] (cell cycle stage: mitosis), 54.6 °C.
With “MDPARKAGAQAMIWTAGWLLLLLLRGGAQALECYSCVQKADDGCSPNKMKTVKCAPGVDVCTEAVGAVETIHGQFSLAVRGCGSGLPGKNDRGLDLHGLLAFIQLQQCAQDRCNAKLNLTSRALDPAGNESAYPPNGVECYSCVGLSREACQGTSPPVVSCYNASDHVYKGCFDGNVTLTAANVTVSLPVRGCVQDEFCTRDGVTGPGFTLSGSCCQGSRCNSDLRNKTYFSPRIPPLVRLPPPEPTTVASTTSVTTSTSAPVRPTSTTKPMPAPTSQTPRQGVEHEASRDEEPRLTGGAAGHQDRSNSGQYPAKGGPQQPHNKGCVAPTAGLAALLLAVAAGVLL [LYPD3]”, the figures for the thermal stability score in data set [1] (setting [5]) and in data set [1] (cell cycle stage: mitosis) were -2.56 and 3.5, respectively. Moreover, the “solubility in G1/S (log2)” value in data set [2] is -0.405. In data set [3], the “solubility change mitosis (log2)” value is -0.185. Further, the melting temperature in data set [4] (cell cycle stage: G1/S) was 56.9 °C.
With “MDPLGDTLRRLREAFHAGRTRPAEFRAAQLQGLGRFLQENKQLLHDALAQDLHKSAFESEVSEVAISQGEVTLALRNLRAWMKDERVPKNLATQLDSAFIRKEPFGLVLIIAPWNYPLNLTLVPLVGALAAGNCVVLKPSEISKNVEKILAEVLPQYVDQSCFAVVLGGPQETGQLLEHRFDYIFFTGSPRVGKIVMTAAAKHLTPVTLELGGKNPCYVDDNCDPQTVANRVAWFRYFNAGQTCVAPDYVLCSPEMQERLLPALQSTITRFYGDDPQSSPNLGRIINQKQFQRLRALLGCGRVAIGGQSDESDRYIAPTVLVDVQEMEPVMQEEIFGPILPIVNVQSLDEAIEFINRREKPLALYAFSNSSQVVKRVLTQTSSGGFCGNDGFMHMTLASLPFGGVGASGMGRYHGKFSFDTFSHHRACLLRSPGMEKLNALRYPPQSPRRLRMLLVAMEAQGCSCTLL [ALDH3B1]”, the thermal stability score in data set [1] (setting [5]) came to 0.958; in data set [1] (cell cycle stage: mitosis), 1.14. Also, the “solubility in G1/S (log2)” value in data set [2] was found to be 0.252. Moreover, the “solubility change mitosis (log2)” value in data set [3] is -0.152. In addition, the melting temperature in data set [4] (cell cycle stage: G1/S) is 52.2 °C; in data set [4] (cell cycle stage: mitosis), 51.8 °C.
For “MDPQRSPLLEVKGNIELKRPLIKAPSQLPLSGSRLKRRPDQMEDGLEPEKKRTRGLGATTKITTSHPRVPSLTTVPQTQGQTTAQKVSKKTGPRCSTAIATGLKNQKPVPAVPVQKSGTSGVPPMAGGKKPSKRPAWDLKGQLCDLNAELKRCRERTQTLDQENQQLQDQLRDAQQQVKALGTERTTLEGHLAKVQAQAEQGQQELKNLRACVLELEERLSTQEGLVQELQKKQVELQEERRGLMSQLEEKERRLQTSEAALSSSQAEVASLRQETVAQAALLTEREERLHGLEMERRRLHNQLQELKGNIRVFCRVRPVLPGEPTPPPGLLLFPSGPGGPSDPPTRLSLSRSDERRGTLSGAPAPPTRHDFSFDRVFPPGSGQDEVFEEIAMLVQSALDGYPVCIFAYGQTGSGKTFTMEGGPGGDPQLEGLIPRALRHLFSVAQELSGQGWTYSFVASYVEIYNETVRDLLATGTRKGQGGECEIRRAGPGSEELTVTNARYVPVSCEKEVDALLHLARQNRAVARTAQNERSSRSHSVFQLQISGEHSSRGLQCGAPLSLVDLAGSERLDPGLALGPGERERLRETQAINSSLSTLGLVIMALSNKESHVPYRNSKLTYLLQNSLGGSAKMLMFVNISPLEENVSESLNSLRFASKVNQCVIGTAQANRK [KIFC1]”, the results for the thermal stability score in data set [1] (setting [5]) and in data set [1] (cell cycle stage: mitosis) were 3.16 and 4.4, respectively. In addition, the “solubility in G1/S (log2)” value in data set [2] turned out to be 0.0107. Further, in data set [3], the “solubility change mitosis (log2)” value turned out to be 0.12. Moreover, the melting temperature in data set [4] (cell cycle stage: G1/S) amounted to 47.4 °C; in data set [4] (cell cycle stage: mitosis) it was 48.8 °C.
For the sequence “MDQEPVGGVERGEAVAASGAAAAAAFGESAGQMSNERGFENVELGVIGKKKKVPRRVIHFVSGETMEEYSTDEDEVDGLEKKDVLPTVDPTKLTWGPYLWFYMLRAATSTLSVCDFLGEKIASVLGISTPKYQYAIDEYYRMKKEEEEEEEENRMSEEAEKQYQQNKLQTDSIVQTDQPETVISSSFVNVNFEMEGDSEVIMESKQNPVSVPP [FAM177A1]”, the thermal stability score is 0.512 in data set [1] (setting [5]) and -0.398 in data set [1] (cell cycle stage: mitosis). Besides, the “solubility in G1/S (log2)” value in data set [2] was 0.0523. Moreover, the “solubility change mitosis (log2)” value in data set [3] was -0.0492. The results for the melting temperature in data set [4] (cell cycle stage: G1/S) and in data set [4] (cell cycle stage: mitosis) were 54.5 °C and 56.5 °C, respectively.
